This is an account of results in patent US11708423B2, “Chimeric engulfment receptor molecules and methods of use” (CERO THERAPEUTICS, INC., priority 2017, dated 2023).

One series relates to SCC152 cells. The series is described as follows: LDH cytotoxicity assay, CD4 T cell/CER104 + CD8 T cell/HPV16 E7 TCR co-culture. The following applies: CD4/CER + CD8/HPV16 E7 TCR 1:1, 4 hours. Type of series: cell-based, human. The text has this: LDH is a cytosolic enzyme that is released by a cell into cell culture media when the plasma membrane is damaged. Thus, LDH's presence in culture medium is a marker for cell death. LDH assays are capable of detecting low level damage to cell membrane which cannot be detected using other methods. LDH may be detected using colorimetric or fluorometric methods.

The test system of series [1] is human primary B cells. Put plainly: Gene expression profile (activation state) of CER21+ B cells. In kind it is cell-based. The following applies: CD40, CD40L, RANTES, CXCL10, CXCL11, LTα, TNFa. The text has this: To evaluate the activation state of CER21+ human primary B cells, gene expression profiles were examined from transduced B cell populations.
In series [2] the test system is human primary B cells. The series is described as follows: Proliferation of CER+ B cells co-cultured with paclitaxel treated Jurkat cells (CELLTRACE Violet dilution). In kind it is cell-based. The note with it: 5 days co-culture with paclitaxel (30 μM) treated Jurkat cells, no exogenous cytokines. The protocol:
The proliferation capacity of CER19+ and CER21+ human primary B cells was evaluated by co-culture with paclitaxel (30 μM) treated Jurkat lymphoma cells. CER-transduced B cells were labeled with CELLTRACE Violet and then co-cultured with paclitaxel treated Jurkat cells a target cell to effector cell ratio of 5:1 at 37° C. in the absence of exogenous cytokines for 5 days. Proliferation of CER19+ or CER21+B cells was assessed by flow cytometry by measuring dilution of CELLTRACE Violet (FIG. 23). Both CER19+ and CER21+ B cells increased approximately 10-fold after 5 days of co-culture in the absence of exogenous cytokines.

For a further series, the system named is H1975 NSCLC cells. The series is described as follows: Phagocytosis of Osimeritinib-treated H1975 cells by CER122 T cells. Type of series: cell-based. The note with it: 500 nM osimeritinib, 12 hours, CD4+ T cells. The protocol: H1975 NSCLC cells were treated with 500 nM Osimeritinib and then labeled with pH-rodo red, a pH sensing dye, to indicate localization to low-pH retaining endosomes. CD4+ T cells were transduced with a lentiviral vector comprising a CER122 nucleic acid and tEGFR nucleic acid (transduction marker). CER122 has a polypeptide sequence as set forth in SEQ ID NO:149 and comprises a Tim4 binding domain, Tim4 transmembrane domain, and an engulfment signaling domain comprising a primary engulfment signaling domain comprising a TLR2 signaling domain and a secondary engulfment signaling domain comprising a DAP12 signaling domain. CER122-transduced T cells labeled with CELLTRACE Violet were co-cultured with Osimeritinib-treated H1975 NSCLC cells. Fluorescent microscopy images (40X) were obtained 12 hours after co-culture of H1975 cells and CER-expressing T cells (FIG. 47, top left panel). […] Phagocytic events can be visualized as pHrodo red targets within CELLTRACE Violet labeled T cells. An enlargement of phagocytosis of pHrodo red labeled H1975 cells by CELLTRACE Violet labeled CER122-modified T cells is shown in the bottom panel of FIG. 47, with white arrows indicating phagocytic events.

The subject of series [3] is H1975 EGFR+/Luciferase+ cells. Put plainly: Adoptive transfer of CER T cells with EGFR inhibitor in H1975 xenograft. Type of series: in vivo, immunodeficient (NSG) mice. The following applies: Osimeritinib 1 mg/kg intraperitoneally + 10e6 CER-transduced human T cells, NSG mice. The protocol: The combination of CER therapy and EGFR inhibitor therapy was also evaluated in vivo. […] H1975 EGFR+/Luciferase^+ cells were engrafted into immunodeficient (NSG) mice 14 days prior to initiation of study and evaluated for engraftment by bioluminescent emission and tumor volume seven days later. The day prior to CER adoptive transfer (day-1), animals with established tumors were randomized into groups and treated with Osimeritinib 1 mg/kg (intraperitoneally) and then infused by tail vein with 10e6 CER-transduced human T cells. Animals received 10 μg of systemic IL-2 every 24 hours×3 days following cell infusion and then monitored for tumor progression and cell expansion and persistence thereafter. Tumor volume measurements were obtained post-adoptive transfer in untreated, Osimeritinib treated (1 mg/kg)+mock-transduced T cells (vector only), and Osimeritinib (1 mg/kg)+CER122-transduced T cells (n=5/group) (FIG. 79).
(A xenograft is tissue or cells of one species grown in another, often human tumour cells in immunodeficient mice.)

For series [4], the system named is HCC159 lung adenocarcinoma cells. Put plainly: Interferon Gamma secretion, HCC159 co-culture. The following applies: Osimeritinib 0, 1, 5 nM; 18 hours. In kind it is cell-based. The protocol: HCC159 lung adenocarcinoma cells were co-cultured with CER123- or CER126-expressing CD4+ T cells with increasing concentrations of Osimeritnib (0, 1 nM, 5 nM). After 18 hours of co-culture, bulk supernatants were evaluated using a LDH-based cytotoxicity assay. T cells assays were performed using purified, EGFR^+ (transduction marker), CER modified T cells 7 days after activation using CD3 & CD28 microbeads at effector:target cell ratios of 2:1 or 5:1. Control “Mock” T cells were transduced with vector alone. […] Bulk supernatants were also analyzed after 18 hours of co-culture for Interferon Gamma (IFNγ) secretion (FIG. 50). Control “Mock” T cells were transduced with vector alone.

Another series deals with HPV E7 oncoproteins. Put plainly: Antigen cross-presentation, E6/E7 TCR NFAT-luciferase Jurkat reporter. In kind it is cell-based, human. The following applies: CD4+ and CD8+ T cells after phagocytosis of SCC152 HPV+ cells, compared to mock. The text has this: CD4+ and CD8+CER-expressing T cell lines were established from human PBMCs. Purified T cells were transduced with lentivirus encoding CER123 (SEQ ID NO:150) and truncated EGFR (transduction marker), after activation with CD3 & CD28 microbeads, and then expanded in medium containing IL-7, IL-15, and IL-2 for 5 days. The percentage of tEGFR+ T cells ranged between 40-60%.
A Jurkat cell line with a stable integration of an NFAT-inducible Luciferase reporter construct was utilized to study T cell responses. Human E6- and E7-specific engineered TCRs were transduced into Jurkat NFAT reporter cell lines to characterize NFAT activation upon co-culture with engineered CERs.
For assessing MHC-I cross-presentation, SCC152 HPV^+ cells were co-cultured overnight with CER123-expressing CD4+ and CD8+ T cells or mock-transduced (vector only) T cells in the presence of T cells expressing an E7-specific TCR. […] NFAT activation was assessed at serial time points (0, 6, 12, 24, and 72 hrs) by measuring luciferase activity in cell culture supernatants. […] Induction of E711-19 —specific Jurkat T cells were quantified by luminescence of NFAT signaling at indicated time points and compared to Mock (vector-alone) transduced T cells (FIG. 87).

B1: CER104: Tim4 binding and transmembrane domains, TLR8 primary and DAP12 secondary signaling domains; SEQ ID NO:133 (protein)
chain: MSKGLLLLWLVTELWWLYLTPAASEDTIIGFLGQPVTLPCHYLSWSQSRNSMCWGKGSCPNSKCNAELLRTDGTRIISRKSTKYTLLGKVQFGEVSLTISNTNRGDSGVYCCRIEVPGWFNDVKKNVRLELRRATTTKKPTTTTRPTTTPYVTTTTPELLPTTVMTTSVLPTTTPPQTLATTAFSTAVTTCPSTTPGSFSQETTKGSAFTTESETLPASNHSQRSMMTISTDIAVLRPTGSNPGILPSTSQLTTQKTTLTTSESLQKTTKSHQINSRQTILIIACCVGFVLMVLLFLAFLHHLFYWDVWFIYNVCLAKVKGYRSLSTSQTFYDAYISYDTKDASVTDWVINELRYHLEESRDKNVLLCLEERDWDPGLAIIDNLMQSINQSKKTVFVLTKKYAKSWNFKTAFYLALQRLMDENMDVIIFILLEPVLQHSQYLRLRQRICKSSILQWPDNPKAEGLFWQTLRNVVLTENDSRYNNMYVDSIKQYYFLGRLVPRGRGAAEAATRKQRITETESPYQELQGQRSDVYSDLNTQRPYYK
modifications: CER104 protein
Turning to B1, the “cytolytic activity (LDH cytotoxicity assay)” value in the series with SCC152 cells is given as “enhanced cytolytic activity”.

B2: CER21: Tim4 binding and transmembrane domains, TLR8 signaling domain; SEQ ID NO:88 (protein)
chain: MSKGLLLLWLVTELWWLYLTPAASEDTIIGFLGQPVTLPCHYLSWSQSRNSMCWGKGSCPNSKCNAELLRTDGTRIISRKSTKYTLLGKVQFGEVSLTISNTNRGDSGVYCCRIEVPGWFNDVKKNVRLELRRATTTKKPTTTTRPTTTPYVTTTTPELLPTTVMTTSVLPTTTPPQTLATTAFSTAVTTCPSTTPGSFSQETTKGSAFTTESETLPASNHSQRSMMTISTDIAVLRPTGSNPGILPSTSQLTTQKTTLTTSESLQKTTKSHQINSRQTILIIACCVGFVLMVLLFLAFLHHLFYWDVWFIYNVCLAKVKGYRSLSTSQTFYDAYISYDTKDASVTDWVINELRYHLEESRDKNVLLCLEERDWDPGLAIIDNLMQSINQSKKTVFVLTKKYAKSWNFKTAFYLALQRLMDENMDVIIFILLEPVLQHSQYLRLRQRICKSSILQWPDNPKAEGLFWQTLRNVVLTENDSRYNNMYVDSIKQY
modifications: CER21 chimeric engulfment receptor
Take B2: the “activation state (B cell mRNA levels compared to transduced control B cells)” value in the series with human primary B cells [1] was “promoted B cell activation molecules and survival factors”. The “increase of CER+ B cells” value with human primary B cells [2] is “approximately 10 fold”.

B3: CER122: Tim4 binding and transmembrane domains, TLR2 primary and DAP12 secondary signaling domains; SEQ ID NO:149 (protein)
chain: MSKGLLLLWLVTELWWLYLTPAASEDTIIGFLGQPVTLPCHYLSWSQSRNSMCWGKGSCPNSKCNAELLRTDGTRIISRKSTKYTLLGKVQFGEVSLTISNTNRGDSGVYCCRIEVPGWFNDVKKNVRLELRRATTTKKPTTTTRPTTTPYVTTTTPELLPTTVMTTSVLPTTTPPQTLATTAFSTAVTTCPSTTPGSFSQETTKGSAFTTESETLPASNHSQRSMMTISTDIAVLRPTGSNPGILPSTSQLTTQKTTLTTSESLQKTTKSHQINSRQTILIIACCVGFVLMVLLFLAFLHRFHGLWYMKMMWAWLQAKRKPRKAPSRNICYDAFVSYSERDAYWVENLMVQELENFNPPFKLCLHKRDFIPGKWIIDNIIDSIEKSHKTVFVLSENFVKSEWCKYELDFSHFRLFDENNDAAILILLEPIEKKAIPQRFCKLRKIMNTKTYLEWPMDEAQREGFWVNLRAAIKSYFLGRLVPRGRGAAEAATRKQRITETESPYQELQGQRSDVYSDLNTQRPYYK
modifications: CER122 protein
Consider B3, for which, in the series on H1975 NSCLC cells, the “phagocytosis of H1975 cells” value was “phagocytic elimination of EGFR-mutated NSCLC cells”. The “anti-tumor response (tumor volume)” value in series [3] is “enhanced anti-tumor responses in EGFR+NSCLC model in vivo”.

B4: CER123: Tim4 binding and transmembrane domains, TLR2 primary and TRAF6 secondary signaling domains; SEQ ID NO:150 (protein)
chain: MSKGLLLLWLVTELWWLYLTPAASEDTIIGFLGQPVTLPCHYLSWSQSRNSMCWGKGSCPNSKCNAELLRTDGTRIISRKSTKYTLLGKVQFGEVSLTISNTNRGDSGVYCCRIEVPGWFNDVKKNVRLELRRATTTKKPTTTTRPTTTPYVTTTTPELLPTTVMTTSVLPTTTPPQTLATTAFSTAVTTCPSTTPGSFSQETTKGSAFTTESETLPASNHSQRSMMTISTDIAVLRPTGSNPGILPSTSQLTTQKTTLTTSESLQKTTKSHQINSRQTILIIACCVGFVLMVLLFLAFLHRFHGLWYMKMMWAWLQAKRKPRKAPSRNICYDAFVSYSERDAYWVENLMVQELENFNPPFKLCLHKRDFIPGKWIIDNIIDSIEKSHKTVFVLSENFVKSEWCKYELDFSHFRLFDENNDAAILILLEPIEKKAIPQRFCKLRKIMNTKTYLEWPMDEAQREGFWVNLRAAIKSMSLLNCENSCGSSQSESDCCVAMASSCSAVTKDDSVGGTASTGNLSSSFMEEIQGYDVEFDPPLESKYECPICLMALREAVQTPCGHRFCKACIIKSIRDAGHKCPVDNEILLENQLFPDNFAKREILSLMVKCPNEGCLHKMELRHLEDHQAHCEFALMDCPQCQRPFQKFHINIHILKDCPRRQVSCDNCAASMAFEDKEIHDQNCPLANVICEYCNTILIREQMPNHYDLDCPTAPIPCTFSTFGCHEKMQRNHLARHLQENTQSHMRMLA
modifications: CER123 protein
Regarding B4, in series [4], the “Interferon Gamma (IFNγ) secretion” value was “inducible cytokine secretion”. Also, in the series on HPV E7 oncoproteins, the “cross-presentation of HPV E7 oncoproteins (NFAT activation)” value is reported as “enhanced cross-presentation efficiency of HPV E7 oncoproteins”.
